# Test results from patent US20130157959.
# Molecular target: in vitro translated 35S-labelled p53 (wild-type) (UniProt P04637)
substance,measurement,value
GST-Hades RING-mutant peptide (C302S/C305S),"in vitro ubiquitination of p53 with E1, E2 (UbcH5c) and His-ubiquitin, anti-p53 immunoblot",The p53 ubiquitination was only induce by Hades
